Measurements published in patent US20050281914.
Where two headings read alike, the source gives them in different places.

T1: β-casein (f193-209)
T1 chain: YQEPVLGPVRGPFPIIV

T2: αS1-casein (f1-9)
T2 chain: RPKHPIKHQ

T3: αS1-casein (f1-9)
T3 sequence: RPKHPIKHQ

T4: β-casein (f193-209)
T4 sequence: YQEPVLGPVRGPFPIIV


Columns and labels:
[1] = target: T1, β-casein (f193-209)
[2] = target: T2, αS1-casein (f1-9)
[3] = test system: T3, αS1-casein (f1-9); remark: listed apart in the source
[4] = test system: T4, β-casein (f193-209); remark: listed apart in the source

Protein	Specific activity (Lc. lactis CFE), Cheddar cheese serum [3]	Specific activity (Lc. lactis CFE), defined peptide mix [3]	Specific activity (Lc. lactis CFE), individual peptide reaction [3]	relative activity in the defined peptide mix [3]	Specific activity (E. coli CFE) (nmoles substrate hydrolyzed/h/mg protein) [1]	Specific activity (E. coli CFE, control subtracted) (nmoles substrate hydrolyzed/h/mg protein) [1]	Specific activity (E. coli CFE) (nmoles substrate hydrolyzed/h/mg protein) [2]	Specific activity (E. coli CFE, control subtracted) (nmoles substrate hydrolyzed/h/mg protein) [2]	further results
Lactobacillus helveticus CNRZ32 endopeptidase PepE2 (protein) MKHELTMAEIAKFQQEYKKEPQNRVAELAVVNNGVQKASFNTEGIRKLNRTFSIEIPTDNVTDQKQSGRCWLFAALNTLRHGFAKKYNTKNFTFSQNYLFFWDRVERANIFFDNILNTADKPLGDRTVHTYMQGPDADGGQWAMAVSLIRKYGLVPTYAQEESFTANNTAAFNRALNMKLREDGLILRKLAKENKTDEIETKRQEFLSEVYRMAVIAFGEPVQKFDLEFKDDDGKYHFDGDLTPLDFFHNYFTDDLDDYIVLFNAPDHEFDKLYALPFEDNVEGGTPVQFLNTEIDNLKEAAIKQLEAGETIWFGCDVGKDSDRQKGILSKGLYQTDTIFNIETKLSKKERLQTGASGSTHAMTLVGVDVVDGKPRQWKIENSWGAKVGEKGYFVMDDDWFNEYLFKVVVKKQYVPDKLVKIWEGEATPVEAWDSMA									hydrolysis under simulated cheese ripening conditions [1]: No hydrolysis of either peptide was detected after incubation with CFE from E. coli transformed with pepE2; hydrolysis under simulated cheese ripening conditions [2]: No hydrolysis of either peptide was detected after incubation with CFE from E. coli transformed with pepE2
Lactobacillus helveticus CNRZ32 PepE expressed as PpepO3:pepE translational fusion in Lactococcus lactis LM0230 (pSUW666) (enzyme, UniProt P94870 1-438, looked up, PpepO3 fusion junction residues; expressed in Lactococcus) Aminopeptidase E: MAHELTVQELEKFSADFNKNPKNKVVARAAQRSGVLEASYNDRVQSELTRVFSTELDTDNVTNQKHSGRCWLFATLNVLRHEFGKKYKAKDFTFSQAYNFFWDKIERANMFYNRILDSADMPLDSRQVKTDLDFAGTDGGQFQMAAALVEKYGVVPSYAMPETFNTNDTTGFATALGDKLKKDALVLRKLKQEGKDDEIKKTREKFLSEVYQMTAIAVGEPPKKFDLEYRDDDKKYHLEKDLTPLEFLHKYLGGVDFDDYVVLTNAPDHEYDKLYGLPAEDNVSGSIRIKLLNVPMEYLTAASIAQLKDGEAVWFGNDVLRQMDRKTGYLDTNLYKLDDLFGVDLKMSKADRLKTGVGEVSHAMTLVGVDEDNGEVRQWKVENSWGDKSGAKGYYVMNNEWFNDYVYEVVVHKKYLTDKQKELAEGPITDLPAWDSLA	31 (17)^c, C	120 (7)^a, B	190 (14)^a, A	PepE had highest activity towards αS1-CN (f1-9) and αS1-CN (f1-6)					
Lactobacillus helveticus CNRZ32 endopeptidase PepF (protein) MAIPTRSEVPEDLKWDLTRIFKTDQDWENAFDKAKDDVAKLSELKGSLAKSGKDLYEGLTKILAVKRDVENIYVYATMSSDVDTSNSHYLGYVSRVQSLSNQFEATTSFINPEILSIPAEKFEQFKKDEPRLADYAHYLEMITNKRPHTLPAEEEKIIADAGDAMSVSENTFNVLTNSDMEYGYVQDEDGNMEQLSNGLYSLLIQSQNRDVRKGAFNTLYASYGQFQNSLASTLSGVVKKHNYNARMHKYDSAREAALADNGVPVEVYDTLIKEVDSHLDLLHRYVALRKKILGLKDLQMWDMYVPLTGKPALSYNFEEAKKVAKEAMKPLGEDYLKHVDYIFNNRVIDPVESKGKVTGAYSGGAYDTDPYELLNWEDNIDSLYTLVHETGHSVHSWYTRHSQPYIYGNYPIFVAEIASTTNENILTEYFLDHITDPKTRAFILNHYLDSFKGTLFRQTQFAVFEQFIHEADAKGEPLTADILDDVYGQINQHYYGDSVEPGGDIALEWSRIPHFYYNFYVYQYATGFAAATALANKVVHGSQADRDAYLGYLKSGSSDYPTEIMKRAGVDMTKPDYLKDAFKTFEKRLNEFESLIGK					14	14			Specific activity (E. coli CFE) [2]: -
Lactobacillus helveticus CNRZ32 endopeptidase PepO3 (protein) MTVRGGAGDITEADLSARPQDNLYLAVNSEWLKNAKIPSDRSRTSSFDGIDLNIEKELMQDFADFADGKKDLPDVPNFEKAVALYKIAKDFDRRNADGADPIQADLHEILGLRNFADFTLKAADFFKNGFPMPFDFSVEADMKNTKIHSLQFGGPGTFLPDTTTYKTPAAEKLLAVLKEQSINLLTMSGISKSEAEDYAEKALAYDAKIAKVVKSAEEWADYPATYNPISRDDFADKFKSFKMDYFLGELFAKKPERVINTEPRYLDYAEELLNEDVFAEIKAWMLVKFVNGVASSLSQEFREAAFPFSQALSGQPELPSGVKQAYHIANSDFSEVVGVYYGQTYFGAEAKADVTDMIHKMLDVYEKRIRENSWLSQATKDKAIVKLRALILKIGYPDKIEEIYDRLTVDPEASLYANEAQFGREQIKYNLEKLDQDVDRSVWLMPGNLVNACYDPQRNDLTFPAAILQKPFYDLKQSRSLNYGGIGVVIAHEISHAFDNNGAQFDEFGNMKNWWTEKDFAEFKKRTQAEIDLFDGIKYGPVTLNGKQIVSENIADQGGLTAAVEANKGEDGNMKELFENFARVWATKQLPESIKTQVSVDVHAPGPERANVQSQCQEEFYKAFDVTEHDGMWLDPEKRVVIW					88	88	79	85	Specific activity (Lc. lactis CFE), Cheddar cheese serum [1]: 61 (23)^b, A; Specific activity (Lc. lactis CFE), defined peptide mix [1]: 40 (6.0)^a, B; Specific activity (Lc. lactis CFE), single peptide reaction [1]: 81 (7.0)^a, A; hydrolysis in spiked Cheddar cheese serum (RP-HPLC) [1]: hydrolyzed completely within 12 hours; Specific activity (Lc. lactis CFE), Cheddar cheese serum [2]: 63 (25)^b, A; Specific activity (Lc. lactis CFE), defined peptide mix [2]: 38 (9.0)^c, A; Specific activity (Lc. lactis CFE), individual peptide reaction [2]: 41 (19)^b, A
Lactobacillus helveticus CNRZ32 endopeptidase PepO2 (protein) MNLAKIRGGAGDITKPDLNARIQDNLYLAVNSDWISKAKIPADRPLISSFSEIDLKIEKELMNDLADFASGKKALPDIPNFDKAIEVYKLAKDFAKRDADGFQPAQADLETLINLKDVDDVKQNLAKLLLRFSFPFLFEVEPDRKNTKTNSLSFDRNSLILPDTTSYQSPSAKQLLDVWQKQTENLLKMAGVEEAAAKKYATDAIALDAKIVKVAKSAEERADDVALYNPIKTNEFEEKTSSLNLGQLLEQLFEKKPNYVVVSEPKFLDHFNELFNQESFDELKGWLISIFINKAAAFLSEEFRQAAFPFKQATYGQKELPSQEKEAYYKANNLFDDVIGVYYGRTYFGEDAKADVEDMIHRMIDVYEQRITNNEWLSPATKEKAITKLRALVLKIGYPNKIDHVYDLFQVTPANEGGNLYSNQANIREVSLKHNFDKLYKPVDRSEWYMPGNLINACYDPQRNDITFPAAILEAPFYDINASRATNYGGIGVVIAHEISHAFDNNGAKYDEFGNMKNWWTKEDFAEFEKRTQAEIDLFDGIKYGPVTLNGKQIVSENIADQGGLTAGIEANKNEHGDMKELFENYARIWASKESPEIIKTIAAFDVHAPGPVRVNVQVQCQPEFYKAFNVQEGDGMWLDPAKRVVI					290	290	1900	3700	hydrolysis detected by RP-HPLC (pH 6.5, 37° C.) [1]: significant hydrolysis of both β-CN(f193-209) and αs1-CN(f1-9) was detected with CFEs from E. coli DH5α (pSUW99); hydrolysis detected by RP-HPLC (pH 6.5, 37° C.) [2]: significant hydrolysis of both β-CN(f193-209) and αs1-CN(f1-9) was detected with CFEs from E. coli DH5α (pSUW99)
Lactobacillus helveticus CNRZ32 PepO2 expressed as PpepO3:pepO2 translational fusion in Lactococcus lactis LM0230 (pSUW665) (enzyme, PpepO3 start and BamHI junction residues) MNLAKIRGGAGDITKPDLNARIQDNLYLAVNSDWISKAKIPADRPLISSFSEIDLKIEKELMNDLADFASGKKALPDIPNFDKAIEVYKLAKDFAKRDADGFQPAQADLETLINLKDVDDVKQNLAKLLLRFSFPFLFEVEPDRKNTKTNSLSFDRNSLILPDTTSYQSPSAKQLLDVWQKQTENLLKMAGVEEAAAKKYATDAIALDAKIVKVAKSAEERADDVALYNPIKTNEFEEKTSSLNLGQLLEQLFEKKPNYVVVSEPKFLDHFNELFNQESFDELKGWLISIFINKAAAFLSEEFRQAAFPFKQATYGQKELPSQEKEAYYKANNLFDDVIGVYYGRTYFGEDAKADVEDMIHRMIDVYEQRITNNEWLSPATKEKAITKLRALVLKIGYPNKIDHVYDLFQVTPANEGGNLYSNQANIREVSLKHNFDKLYKPVDRSEWYMPGNLINACYDPQRNDITFPAAILEAPFYDINASRATNYGGIGVVIAHEISHAFDNNGAKYDEFGNMKNWWTKEDFAEFEKRTQAEIDLFDGIKYGPVTLNGKQIVSENIADQGGLTAGIEANKNEHGDMKELFENYARIWASKESPEIIKTIAAFDVHAPGPVRVNVQVQCQPEFYKAFNVQEGDGMWLDPAKRVVI	150 (40)^a, B	84 (20)^b, C	240 (10)^a, A	PepO2 had highest activity towards peptides αS1-CN (f1-9), and αS1-CN (f1-13)					Specific activity (Lc. lactis CFE), Cheddar cheese serum [4]: 120 (32)^a, A; Specific activity (Lc. lactis CFE), defined peptide mix [4]: 42 (10)^a, B; Specific activity (Lc. lactis CFE), single peptide reaction [4]: 64 (1.5)^a, B; hydrolysis in spiked Cheddar cheese serum (RP-HPLC) [4]: hydrolyzed completely within 12 hours
